Reference: US20260266848A1, “COMPOSITIONS AND METHODS FOR DIAGNOSING AND TREATING DYSTONIA” (Duke University, priority 2023, published 2026)

B1: LRRC59 (protein, UniProt Q96AG4 1-307, looked up)
Leucine-rich …: MTKAGSKGGNLRDKLDGNELDLSLSDLNEVPVKELAALPKATILDLSCNKLTTLPSDFCGLTHLVKLDLSKNKLQQLPADFGRLVNLQHLDLLNNKLVTLPVSFAQLKNLKWLDLKDNPLDPVLAKVAGDCLDEKQCKQCANKVLQHMKAVQADQERERQRRLEVEREAEKKREAKQRAKEAQERELRKREKAEEKERRRKEYDALKAAKREQEKKPKKEANQAPKSKSGSRPRKPPPRKHTRSWAVLKLLLLLLLFGVAGGLVACRVTELQQQPLCTSVNTIYDNAVQGLRRHEILQWVLQTDSQQ
B2: ACAA1 (protein, UniProt P09110 27-424, looked up)
3-ketoacyl-CoA thiolase, …: LSGAPQASAADVVVVHGRRTAICRAGRGGFKDTTPDELLSAVMTAVLKDVNLRPEQLGDICVGNVLQPGAGAIMARIAQFLSDIPETVPLSTVNRQCSSGLQAVASIAGGIRNGSYDIGMACGVESMSLADRGNPGNITSRLMEKEKARDCLIPMGITSENVAERFGISREKQDTFALASQQKAARAQSKGCFQAEIVPVTTTVHDDKGTKRSITVTQDEGIRPSTTMEGLAKLKPAFKKDGSTTAGNSSQVSDGAAAILLARRSKAEELGLPILGVLRSYAVVGVPPDIMGIGPAYAIPVALQKAGLTVSDVDIFEINEAFASQAAYCVEKLRLPPEKVNPLGGAVALGHPLGCTGARQVITLLNELKRRGKRAYGVVSMCIGTGMGAAAVFEYPGN
B3: PSMD12 (protein, UniProt O00232 2-456, looked up)
26S proteasome non-ATPase …: ADGGSERADGRIVKMEVDYSATVDQRLPECAKLAKEGRLQEVIETLLSLEKQTRTASDMVSTSRILVAVVKMCYEAKEWDLLNENIMLLSKRRSQLKQAVAKMVQQCCTYVEEITDLPIKLRLIDTLRMVTEGKIYVEIERARLTKTLATIKEQNGDVKEAASILQELQVETYGSMEKKERVEFILEQMRLCLAVKDYIRTQIISKKINTKFFQEENTEKLKLKYYNLMIQLDQHEGSYLSICKHYRAIYDTPCIQAESEKWQQALKSVVLYVILAPFDNEQSDLVHRISGDKKLEEIPKYKDLLKLFTTMELMRWSTLVEDYGMELRKGSLESPATDVFGSTEEGEKRWKDLKNRVVEHNIRIMAKYYTRITMKRMAQLLDLSVDESEAFLSNLVVNKTIFAKVDRLAGIINFQRPKDPNNLLNDWSQKLNSLMSLVNKTTHLIAKEEMIHNLQ
B4: PITPNB (protein, UniProt P48739 1-271, looked up)
Phosphatidylinositol transfer …: MVLIKEFRVVLPCSVQEYQVGQLYSVAEASKNETGGGEGIEVLKNEPYEKDGEKGQYTHKIYHLKSKVPAFVRMIAPEGSLVFHEKAWNAYPYCRTIVTNEYMKDDFFIKIETWHKPDLGTLENVHGLDPNTWKTVEIVHIDIADRSQVEPADYKADEDPALFQSVKTKRGPLGPNWKKELANSPDCPQMCAYKLVTIKFKWWGLQSKVENFIQKQEKRIFTNFHRQLFCWIDKWIDLTMEDIRRMEDETQKELETMRKRGSVRGTSAADV
B5: BZW2 (protein, UniProt Q9Y6E2 1-419, looked up)
eIF5-mimic protein 1: MNKHQKPVLTGQRFKTRKRDEKEKFEPTVFRDTLVQGLNEAGDDLEAVAKFLDSTGSRLDYRRYADTLFDILVAGSMLAPGGTRIDDGDKTKMTNHCVFSANEDHETIRNYAQVFNKLIRRYKYLEKAFEDEMKKLLLFLKAFSETEQTKLAMLSGILLGNGTLPATILTSLFTDSLVKEGIAASFAVKLFKAWMAEKDANSVTSSLRKANLDKRLLELFPVNRQSVDHFAKYFTDAGLKELSDFLRVQQSLGTRKELQKELQERLSQECPIKEVVLYVKEEMKRNDLPETAVIGLLWTCIMNAVEWNKKEELVAEQALKHLKQYAPLLAVFSSQGQSELILLQKVQEYCYDNIHFMKAFQKIVVLFYKADVLSEEAILKWYKEAHVAKGKSVFLDQMKKFVEWLQNAEEESESEGEEN
B6: TUBB1 (protein, UniProt Q9H4B7 1-451, looked up)
Tubulin beta-1 chain: MREIVHIQIGQCGNQIGAKFWEMIGEEHGIDLAGSDRGASALQLERISVYYNEAYGRKYVPRAVLVDLEPGTMDSIRSSKLGALFQPDSFVHGNSGAGNNWAKGHYTEGAELIENVLEVVRHESESCDCLQGFQIVHSLGGGTGSGMGTLLMNKIREEYPDRIMNSFSVMPSPKVSDTVVEPYNAVLSIHQLIENADACFCIDNEALYDICFRTLKLTTPTYGDLNHLVSLTMSGITTSLRFPGQLNADLRKLAVNMVPFPRLHFFMPGFAPLTAQGSQQYRALSVAELTQQMFDARNTMAACDLRRGRYLTVACIFRGKMSTKEVDQQLLSVQTRNSSCFVEWIPNNVKVAVCDIPPRGLSMAATFIGNNTAIQEIFNRVSEHFSAMFKRKAFVHWYTSEGMDINEFGEAENNIHDLVSEYQQFQDAKAVLEEDEEVTEEAEMEPEDKGH
B7: MARS1 (protein, UniProt P56192 1-900, looked up)
Methionine--tRNA ligase, …: MRLFVSDGVPGCLPVLAAAGRARGRAEVLISTVGPEDCVVPFLTRPKVPVLQLDSGNYLFSTSAICRYFFLLSGWEQDDLTNQWLEWEATELQPALSAALYYLVVQGKKGEDVLGSVRRALTHIDHSLSRQNCPFLAGETESLADIVLWGALYPLLQDPAYLPEELSALHSWFQTLSTQEPCQRAAETVLKQQGVLALRPYLQKQPQPSPAEGRAVTNEPEEEELATLSEEEIAMAVTAWEKGLESLPPLRPQQNPVLPVAGERNVLITSALPYVNNVPHLGNIIGCVLSADVFARYSRLRQWNTLYLCGTDEYGTATETKALEEGLTPQEICDKYHIIHADIYRWFNISFDIFGRTTTPQQTKITQDIFQQLLKRGFVLQDTVEQLRCEHCARFLADRFVEGVCPFCGYEEARGDQCDKCGKLINAVELKKPQCKVCRSCPVVQSSQHLFLDLPKLEKRLEEWLGRTLPGSDWTPNAQFITRSWLRDGLKPRCITRDLKWGTPVPLEGFEDKVFYVWFDATIGYLSITANYTDQWERWWKNPEQVDLYQFMAKDNVPFHSLVFPCSALGAEDNYTLVSHLIATEYLNYEDGKFSKSRGVGVFGDMAQDTGIPADIWRFYLLYIRPEGQDSAFSWTDLLLKNNSELLNNLGNFINRAGMFVSKFFGGYVPEMVLTPDDQRLLAHVTLELQHYHQLLEKVRIRDALRSILTISRHGNQYIQVNEPWKRIKGSEADRQRAGTVTGLAVNIAALLSVMLQPYMPTVSATIQAQLQLPPPACSILLTNFLCTLPAGHQIGTVSPLFQKLENDQIESLRQRFGGGQAKTSPKPAVVETVTTAKPQQIQALMDEVTKQGNIVRELKAQKADKNEVAAEVAKLLDLKKQLAVAEGKPPEAPKGKKKK
B8: RBM3 (protein, UniProt P98179 1-157, looked up)
RNA-binding protein 3: MSSEEGKLFVGGLNFNTDEQALEDHFSSFGPISEVVVVKDRETQRSRGFGFITFTNPEHASVAMRAMNGESLDGRQIRVDHAGKSARGTRGGGFGAHGRGRSYSRGGGDQGYGSGRYYDSRPGGYGYGYGRSRDYNGRNQGGYDRYSGGNYRDNYDN
B9: SLC2A1 (protein, UniProt P11166 1-492, looked up)
Solute carrier family 2, …: MEPSSKKLTGRLMLAVGGAVLGSLQFGYNTGVINAPQKVIEEFYNQTWVHRYGESILPTTLTTLWSLSVAIFSVGGMIGSFSVGLFVNRFGRRNSMLMMNLLAFVSAVLMGFSKLGKSFEMLILGRFIIGVYCGLTTGFVPMYVGEVSPTALRGALGTLHQLGIVVGILIAQVFGLDSIMGNKDLWPLLLSIIFIPALLQCIVLPFCPESPRFLLINRNEENRAKSVLKKLRGTADVTHDLQEMKEESRQMMREKKVTILELFRSPAYRQPILIAVVLQLSQQLSGINAVFYYSTSIFEKAGVQQPVYATIGSGIVNTAFTVVSLFVVERAGRRTLHLIGLAGMAGCAILMTIALALLEQLPWMSYLSIVAIFGFVAFFEVGPGPIPWFIVAELFSQGPRPAAIAVAGFSNWTSNFIVGMCFQYVEQLCGPYVFIIFTVLLVLFFIFTYFKVPETKGRTFDEIASGFRQGGASQSDKTPEELFHPLGADSQV
B10: EHD4 (protein, UniProt Q9H223 1-541, looked up)
EH domain-containing protein 4: MFSWMGRQAGGRERAGGADAVQTVTGGLRSLYLRKVLPLEEAYRFHEFHSPALEDADFENKPMILLVGQYSTGKTTFIRYLLEQDFPGMRIGPEPTTDSFIAVMYGETEGSTPGNALVVDPKKPFRKLSRFGNAFLNRFMCSQLPNQVLKSISVIDSPGILSGEKQRISRGYDFCQVLQWFAERVDRIILLFDAHKLDISDEFSEAIKAFRGQDDKIRVVLNKADQVDTQQLMRVYGALMWSLGKVINTPEVLRVYIGSFWAQPLQNTDNRRLFEAEAQDLFRDIQSLPQKAAVRKLNDLIKRARLAKVHAYIISYLKKEMPSVFGKENKKRELISRLPEIYIQLQREYQISAGDFPEVKAMQEQLENYDFTKFHSLKPKLIEAVDNMLSNKISPLMNLISQEETSTPTQLVQGGAFDGTTEGPFNQGYGEGAKEGADEEEWVVAKDKPVYDELFYTLSPINGKISGVNAKKEMVTSKLPNSVLGKIWKLADCDCDGMLDEEEFALAKHLIKIKLDGYELPSSLPPHLVPPSHRKSLPKAD

Tested on: DYT1 patient plasma derived EVs
Experiment: Plasma-derived EV proteomics (ExoQuick ULTRA, DIA LC/MS/MS), DYT1 vs Healthy Controls
Design: species or system human
Conditions: Hs. Plasma EVs (DYT1/WT); significance of genotype difference
Method: Data was obtained for extracellular vesicles using previously acquired samples. The ExoQuick® ULTRA EV Isolation System was used to fractionate and enrich EVs from plasma. Isolated plasma EV samples were then submitted to proteomic analysis by the Duke Proteomics and Metabolomics Core Facility (DPMCF). At the DPMCF, quantitative (LC/MS/MS) was performed on 500 ng of each sample, using an EvoSep One UPLC system coupled to a Thermo Orbitrap Astral high-resolution accurate mass tandem mass spectrometer (Thermo). Briefly, the sample was eluted directly from an Evotip which was subjected to a low organic wash and then subjected to an analytical separation using a 1.7 μm EvoSep 150 um ID×15 cm endurance (EveoSep) column running an SPD30 gradient from approximately 5 to 30% acetonitrile with 0.1% formic acid with a column temperature of 50 C. Data collection on the Orbitrap Astral mass spectrometer was performed in a data-independent acquisition (DIA) mode of acquisition with a r=240,000 (@m/z 200) full MS scan from m/z 380-980 with a target AGC value of 4e5 ions. Fixed DIA, windows of 4 m/z from m/z 380 to 980 DIA MS/MS scans were acquired in the Astral with a target AGC value of 5e4 and a max fill time of 6 ms. HCD collision energy setting of 27% was used for all MS2 scans.

Molecule	-LogP
B1	1.584
B2	1.434
B3	1.461
B4	1.575
B5	1.385
B6	2.267
B7	1.714
B8	2.179
B9	1.635
B10	3.322
